Reference: patent US20070110748A1

Experiments:
[1] = target: FnBP purified from S. aureus strain Newman (Staphylococcus aureus); assay: competition ELISA on FnBP-coated wells; competitor anti-D121-34 F(ab')2 at 100 µg/ml
[2] = target: FnBP purified from S. aureus strain Newman (Staphylococcus aureus); assay: competition ELISA on FnBP-coated wells; competitor anti-D320-33 F(ab')2 at 100 µg/ml

Sequence of Human plasma Fn, P02751 32-2296 (ligand) (P02751 other isoform, or with tags, fused parts or gaps limits assumed): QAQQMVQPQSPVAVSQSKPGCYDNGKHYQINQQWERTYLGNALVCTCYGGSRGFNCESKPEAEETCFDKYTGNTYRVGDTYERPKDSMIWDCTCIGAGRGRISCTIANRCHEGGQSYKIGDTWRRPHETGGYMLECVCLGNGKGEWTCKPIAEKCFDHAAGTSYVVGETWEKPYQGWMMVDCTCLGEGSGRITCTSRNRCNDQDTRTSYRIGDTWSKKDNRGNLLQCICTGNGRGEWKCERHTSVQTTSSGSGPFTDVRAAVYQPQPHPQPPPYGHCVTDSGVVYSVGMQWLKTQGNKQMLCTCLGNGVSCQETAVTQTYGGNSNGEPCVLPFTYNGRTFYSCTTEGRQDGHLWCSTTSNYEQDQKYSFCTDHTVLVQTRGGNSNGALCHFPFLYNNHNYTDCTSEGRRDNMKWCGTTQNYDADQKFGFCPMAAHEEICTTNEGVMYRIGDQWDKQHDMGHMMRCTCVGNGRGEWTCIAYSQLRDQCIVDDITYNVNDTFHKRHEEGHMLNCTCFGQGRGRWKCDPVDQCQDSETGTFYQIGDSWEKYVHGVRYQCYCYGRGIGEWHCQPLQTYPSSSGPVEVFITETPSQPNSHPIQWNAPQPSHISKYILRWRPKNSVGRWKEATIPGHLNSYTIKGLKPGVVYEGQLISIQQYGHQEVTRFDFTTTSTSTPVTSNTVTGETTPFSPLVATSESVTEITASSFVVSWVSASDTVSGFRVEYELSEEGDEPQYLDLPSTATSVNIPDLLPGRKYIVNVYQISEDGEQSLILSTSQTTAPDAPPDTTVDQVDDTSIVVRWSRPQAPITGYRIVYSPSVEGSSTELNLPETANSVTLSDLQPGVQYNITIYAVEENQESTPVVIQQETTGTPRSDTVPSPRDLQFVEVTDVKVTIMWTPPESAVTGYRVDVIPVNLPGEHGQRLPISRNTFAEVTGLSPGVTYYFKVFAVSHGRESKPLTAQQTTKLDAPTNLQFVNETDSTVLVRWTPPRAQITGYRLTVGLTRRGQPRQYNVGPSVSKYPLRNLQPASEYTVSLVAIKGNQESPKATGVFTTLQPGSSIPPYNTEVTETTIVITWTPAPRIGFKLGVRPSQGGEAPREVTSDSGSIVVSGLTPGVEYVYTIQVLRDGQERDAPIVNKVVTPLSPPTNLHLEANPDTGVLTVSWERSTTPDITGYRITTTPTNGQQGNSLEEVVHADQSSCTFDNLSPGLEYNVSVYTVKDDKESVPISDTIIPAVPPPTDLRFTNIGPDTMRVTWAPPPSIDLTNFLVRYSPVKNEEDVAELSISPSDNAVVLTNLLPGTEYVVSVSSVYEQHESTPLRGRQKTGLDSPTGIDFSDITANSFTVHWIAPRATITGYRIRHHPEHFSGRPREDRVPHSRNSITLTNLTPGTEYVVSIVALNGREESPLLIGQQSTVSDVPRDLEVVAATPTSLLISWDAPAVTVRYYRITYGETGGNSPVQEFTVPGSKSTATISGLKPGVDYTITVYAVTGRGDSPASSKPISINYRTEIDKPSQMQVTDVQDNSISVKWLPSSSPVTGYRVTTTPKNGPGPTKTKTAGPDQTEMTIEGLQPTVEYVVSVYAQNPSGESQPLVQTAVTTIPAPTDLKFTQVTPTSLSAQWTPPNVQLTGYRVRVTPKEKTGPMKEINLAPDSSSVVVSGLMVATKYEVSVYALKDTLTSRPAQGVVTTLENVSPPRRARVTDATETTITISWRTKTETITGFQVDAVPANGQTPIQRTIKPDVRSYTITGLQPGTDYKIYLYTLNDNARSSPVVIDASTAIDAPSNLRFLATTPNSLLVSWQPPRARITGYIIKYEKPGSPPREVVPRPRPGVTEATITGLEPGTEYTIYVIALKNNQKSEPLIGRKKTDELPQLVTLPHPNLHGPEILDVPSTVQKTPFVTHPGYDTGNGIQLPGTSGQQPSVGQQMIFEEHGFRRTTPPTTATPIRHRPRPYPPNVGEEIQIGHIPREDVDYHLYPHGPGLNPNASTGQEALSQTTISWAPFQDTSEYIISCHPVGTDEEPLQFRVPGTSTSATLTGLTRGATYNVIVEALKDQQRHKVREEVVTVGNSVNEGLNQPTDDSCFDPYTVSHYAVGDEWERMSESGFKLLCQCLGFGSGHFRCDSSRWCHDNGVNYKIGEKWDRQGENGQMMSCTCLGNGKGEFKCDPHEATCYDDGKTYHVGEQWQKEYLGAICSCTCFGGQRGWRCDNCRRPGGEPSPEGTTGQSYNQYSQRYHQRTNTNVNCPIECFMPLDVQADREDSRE

**Q.** With “Human plasma Fn, P02751 32-2296 (ligand)” as the substance, how does the concentration of soluble Fn at which F(ab')2 recognition of FnBP was virtually eliminated [1] read?
**A.** 50 µg/mL

**Q.** What about the concentration of soluble Fn at which F(ab')2 recognition of FnBP was virtually eliminated [2] of the same substance?
**A.** 50 µg/mL
